Values belong to the molecule of their own block, whether it stands above or below them. Numbered stars: 1 amine (or outer) side, 2 acyl side, 3 side chain; on linkers, the order of the positions; unused ones are H or OH. Bridge positions count the residues as written; N and C are the ends. Square brackets hold non-standard residues; d marks the D form. Peptide text beside a SMILES is read from it. I, II: the chains in the order shown. Pro(trans-4-F) = O=C(O)[C@@H]1C[C@@H](F)CN1; Phe(4-F) = N[C@@H](Cc1ccc(F)cc1)C(=O)O; X2 = O=C(CCOCCOCCC(=O)[*:2])[*:1]
Experiments:
[1] = target: human Granzyme B (hGranzyme B) (Homo sapiens, UniProt P10144); assay: Surface plasmon resonance (SPR) binding kinetics to hGranzyme B; details: 25° C., 1:1 binding model, KD=kd/ka; read-out: Granzyme B SPR Kd
Method in brief: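 Biotinylated hGranzyme B captured on streptavidin chip (~1100 RU), reference-spot subtracted. Single-cycle kinetics at 25 °C in HBS-EP+ with 2% DMSO: five 3-fold peptide concentrations, 0.01–1 µM, 120 s association, 900 s dissociation. Fit to a 1:1 model for ka and kd, with KD = kd/ka.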

[2] = target: T1, Human Granzyme B (Homo sapiens, UniProt P10144); assay: Granzyme B biochemical inhibition assay (fluorescence); details: 8 nM granzyme B; values below 8 nM reported as <8 nM
T1 sequence (P10144 21-247): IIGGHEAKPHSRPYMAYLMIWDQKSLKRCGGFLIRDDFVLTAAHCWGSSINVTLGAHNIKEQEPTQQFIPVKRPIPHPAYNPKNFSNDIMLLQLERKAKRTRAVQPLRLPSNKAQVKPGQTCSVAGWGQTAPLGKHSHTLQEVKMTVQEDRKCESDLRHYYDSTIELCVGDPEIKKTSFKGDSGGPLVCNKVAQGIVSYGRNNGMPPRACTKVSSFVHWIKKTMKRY
Protocol: Compounds to be tested as inhibitors were manually prepared in a 2-fold serial dilutions in DMSO, spanning 200 uM to 0.39 uM in a Labcyte Echo qualified low dead volume 384-well plate. Then an ECHO acoustic liquid handler was used to dispense 125 nL of each compound from 384-well plate into a PerkinElmer Proxiplate-384 Plus F assay plate. For the positive control of inhibitor, (S)-3-((3S,6S)-3-((2S,3S)-2-acetamido-3-methylpentanamido)-4-oxo-1,2,3,4,6,7-hexahydroazepino[3,2,1-hi]indole-6-carboxamido)-4-oxobutanoic acid (see C. A. Willoughby et al./Bioorg. Med. Chem. Lett. 12 (2002) 2197-2200 2199) was used at 2 uM assay concentration. For no inhibition control, DMSO was used. Each compound was run in duplicate.
Once the compounds were dispensed in the plates, enzyme mix and substrate mix were prepared. Enzyme mix was prepared by preparing a mixture of 300 uL granzyme B (final concentration 8 nM) and 10.8 mL of assay buffer (from Sigma kit). Substrate mix was prepared by combining 500 uL substrate (from Sigma kit) and 3 mL of assay buffer (from Sigma kit). Enzyme mixture was loaded on BioRaptr and 9.25 uL were added to each well of the assay plate containing compounds. The plate was incubated at room temperature under a metal gasket cover for 30 minutes. Subsequently, 3.125 uL of substrate mix were added to each well using the BioRaptr, reaching a final assay volume of 12.5 uL, and the plate was monitored using a Pherastar FS by 1 read per minute for 30 minutes in fluorescence mode, excitation wavelength is 400 nm and emission wavelength is 510 nm.
The data analysis was performed first in excel, where the slopes of the measured fluorescence from each sample were determined using MARS software from BMG LABTECH. These rates were then multiplied by 10,000 for visualization purposes. The rates, multiplied by 10,000, were normalized to 0% and 100% activity based on the average values of the samples with either 2 uM inhibitor (S)-3-((3S,6S)-3-((2S,3S)-2-acetamido-3-methylpentanamido)-4-oxo-1,2,3,4,6,7-hexahydroazepino[3,2,1-hi]indole-6-carboxamido)-4-oxobutanoic acid, or no inhibitor respectively. All samples were then normalized against these values using the formula={100−[(sample−100% inhib)/0% inhib]}*100 to achieve a normalized percent inhibition. Normalized percent inhibition versus concentration inhibitor was then plotted in Graphpad Prism version 9.0.0 and a variable slope (four parameters) fit was calculated for each inhibitor.

[3] = rhesus monkey, in vivo
Protocol: Healthy non-human primate: A 3 h dynamic PET/CT scan was performed in a healthy male rhesus monkey to determine whole body biodistribution and clearance properties in an additional species. Approximately 6 mCi of ^18F-labeled anti-granzyme-B peptide was intravenously injected in the animal. Attenuation correction was performed using low-dose CT scan. Regions of interests (ROI) were manually drawn over tissues of interest to determine mean standardized uptake value (SUVmean).

[4] = target: T1, Human Granzyme B; format: in vivo; parameters: Ten million human peripheral blood mononuclear cell (PBMC) were engrafted in immunocompromised NOG (NOD/Shi-scid/IL-2Rγ) mice; endogenous in cells; host or cells: human PBMC (donor-derived) engrafted in NOG mice
Protocol: Diseased model: Graft versus host disease (GvHD) model was selected to evaluate radiolabeled granzyme-B peptides due to presence of human granzyme-B after onset of disease. Ten million human peripheral blood mononuclear cell (PBMC) were engrafted in immunocompromised NOG (NOD/Shi-scid/IL-2Rγ) mice. Body weight was monitored routinely, once the mice started to lose weight (indication of onset of disease), PET/CT scans were performed. To determine target specificity, NOG mice without human PBMC were used as control. […] Mice were intravenously injected with approximately 150 uCi (35 Ci/mmol) of ^18F-labeled peptides and 45-minute whole body static PET/CT scans were performed 1 h after injection. Attenuation correction was performed using low-dose CT scan.

[5] = target: T2, human Granzyme B (human, UniProt P10144 21-247); assay: SPR, Biacore 8k+, hGranzyme B captured on SA chip, single cycle kinetics, 1:1 model; Compound 38a, observed m/z 914.7
T2 construct: Captured on a Series S Streptavidin chip for SPR; also called hGranzyme B; GzmB
T2 sequence (P10144 21-247 limits assumed): as the sequence (P10144 21-247) above
Protocol: (§1) The kinetics of test peptide binding to human Granzyme B (hGranzyme B) was determined by SPR. All experiments were performed at 25° C. using the Biacore 8k+ instrument (Cytiva, Marlborough, MA). The Biacore 8k+ Insight Evaluation Software Version 3.0 was used to fit the data with a 1:1 binding model to determine the association rate constant kₐ (M⁻¹s⁻¹, where “M” ~equals molar and “s” ~equals seconds) and the dissociation rate constant kd (s⁻¹). These rate constants were used to calculate the equilibrium dissociation constant. KD (M)=kd/kₐ.
(§2) To measure the binding kinetics of peptides of interest, surfaces were prepared by a capture method to a Series S Streptavidin (SA) chip using a 1×HBS-EP+ running buffer (Cytiva). hGranzyme B was diluted to 10 μg/mL in IX HBS-EP+ and flowed over spot 2 of each flow cell on the chip at a flow rate of 10 ul/min for 20 s to achieve a level of capture of ~1100 RU. […] Binding kinetics were measured using single cycle kinetics at 25° C. by injecting 5 concentrations with 3-fold serial dilutions of test peptides from 0.01 μM to 1 μM. […]
(§3) Peptide dilution series included 2 zero concentration points (no compound) which were averaged and subtracted from the peptide concentration injection as DMSO control responses. […] Corrected response data were analyzed using the Biacore 8k+ Evaluation Software Version 3.0 according to the manufacturer. […]

[6] = target: T2, human Granzyme B; assay: cell-based or functional assay
[7] = target: T2, human Granzyme B; assay: SPR, Biacore 8k+, hGranzyme B captured on SA chip, single cycle kinetics, 1:1 model; Compound 40a, observed m/z 915.0
Protocol: as §1, §2, §3

[8] = target: T2, human Granzyme B; assay: SPR, Biacore 8k+, hGranzyme B captured on SA chip, single cycle kinetics, 1:1 model; Compound 25a, observed m/z 905.8
Protocol: as §1, §2, §3

Molecule: C[C@@H]1NC(=O)[C@H](CO)NC(=O)[C@H](CCC(N)=O)NC(=O)[C@H](CC(=O)O)NC(=O)[C@H](CCC(=O)O)NC(=O)[C@H](Cc2ccccc2)NC(=O)[C@H](CC(N)=O)NC(=O)[C@H](Cc2ccccc2)NC(=O)CSC[C@@H](C(=O)NCC(=O)NCC(=O)N[C@@H](CCCCNC(=O)CCOCCOCCC(=O)NCCCC[C@H](NC(=O)CNC(=O)CNC(=O)[C@@H]2CSCC(=O)N[C@@H](Cc3ccccc3)C(=O)N[C@@H](CC(N)=O)C(=O)N[C@@H](Cc3ccccc3)C(=O)N[C@@H](CCC(=O)O)C(=O)N[C@@H](CC(=O)O)C(=O)N[C@@H](CCC(N)=O)C(=O)N[C@@H](CO)C(=O)N[C@@H](C)C(=O)N[C@@H](CC(=O)O)C(=O)N[C@@H]([C@@H](C)O)C(=O)N[C@@H](Cc3c[nH]c4ccccc34)C(=O)N[C@@H](CCC(N)=O)C(=O)N3CCC[C@H]3C(=O)N2)C(N)=O)C(N)=O)NC(=O)[C@@H]2CCCN2C(=O)[C@H](CCC(N)=O)NC(=O)[C@H](Cc2c[nH]c3ccccc23)NC(=O)[C@H]([C@@H](C)O)NC(=O)[C@H](CC(=O)O)NC1=O [Compound 5a, *F.N.F.E.D.Q.S.A.D.T.W.Q.P.*C.G.G.K.NH2)-PEG2-(*F.N.F.E.D.Q.S.A.D.T.W.Q.P.*C.G.G.K.NH2)] (I: {CH2CO}-FNFEDQSADTWQPCGGK-NH2 / II: {CH2CO}-FNFEDQSADTWQPCGGK-NH2; linker I:17-II:17 via X2; thioether I:N-I:14, II:N-II:14)
Kd [1]: < 0.3 nM | IC50 [2]: < 8 nM

Molecule: C[C@@H](O)[C@@H]1NC(=O)[C@H](CC(=O)O)NC(=O)[C@@H]2C[C@@H](F)CN2C(=O)[C@H](CO)NC(=O)[C@H](CCC(N)=O)NC(=O)[C@H](CC(=O)O)NC(=O)[C@H](CCC(=O)O)NC(=O)[C@H](Cc2ccccc2)NC(=O)[C@H](CC(N)=O)NC(=O)[C@H](Cc2ccccc2)NC(=O)CSC[C@@H](C(=O)NCC(=O)NCC(=O)N[C@@H](CCCCNC(=S)Nc2ccc(CC3CN(CC(=O)O)CCN(CC(=O)O)CCN3CC(=O)O)cc2)C(N)=O)NC(=O)[C@@H]2CCCN2C(=O)[C@H](CCC(N)=O)NC(=O)[C@H](Cc2c[nH]c3ccccc23)NC1=O (stereo partly shown) [Compound 19a, *F.N.F.E.D.Q.S.Prot4F.D.T.W.Q.P.*C.G.G.K(^68Ga-NOTA-1).NH2, metal not drawn]
route of clearance [3]: primarily cleared through renal excretion | tissues of highest uptake [3]: highest uptake observed in urine/urinary bladder and kidney

Molecule: *F.N.F.E.D.Q.S.A.D.T.W.Q.P.*C.G.G.K(^18F-AlF-NOTA-1).NH2 [Compound 11a]
uptake (SUVmean) in lung, liver and bone, GvHD model versus NOG control ([4]; 18F-labeled peptides, i.v., mice, static PET/CT 1 h after injection): significantly higher uptake in lung, liver, and bone in GvHD model than NOG control | kidney and bladder uptake difference ([4]; in vivo): No significant difference was observed between the kidney and bladder | primary tissue of excretion ([4]; in vivo): kidney was the primary tissue through which the peptide was excreted | route of excretion [3]: primarily excreted through renal route | blood pool clearance ([3]; iv): rapid blood pool clearance | uptake in kidneys ([3]; iv): high uptake in kidneys within first 20 minutes of injection

Results, then the molecule that gave them:

IC50 [2]: < 8 nM
Molecule: C[C@@H](O)[C@@H]1NC(=O)[C@H](CC(=O)O)NC(=O)[C@@H]2C[C@@H](F)CN2C(=O)[C@H](CO)NC(=O)[C@H](CCC(N)=O)NC(=O)[C@H](CC(=O)O)NC(=O)[C@H](CCC(=O)O)NC(=O)[C@H](Cc2ccccc2)NC(=O)[C@H](CC(N)=O)NC(=O)[C@H](Cc2ccccc2)NC(=O)CSC[C@@H](C(=O)NCC(N)=O)NC(=O)[C@@H]2CCCN2C(=O)[C@H](CCC(N)=O)NC(=O)[C@H](Cc2c[nH]c3ccccc23)NC1=O [Compound 38a, *F.N.F.E.D.Q.S.Prot4F.D.T.W.Q.P.*C.G.NH2] ({CH2CO}-FNFEDQS[Pro(trans-4-F)]DTWQPCG-NH2; thioether N-14)

Kd [5]: 0.7 nM | Human Granzyme B IC50 (fluorogenic substrate enzyme inhibition assay) [6]: < 8 nM
B1: Compound 38a (peptide)
peptide: {CH2CO}-FNFEDQS[Pro(trans-4-F)]DTWQPCG-NH2
modifications: thioether N-14
SMILES: C[C@@H](O)[C@@H]1NC(=O)[C@H](CC(=O)O)NC(=O)[C@@H]2C[C@@H](F)CN2C(=O)[C@H](CO)NC(=O)[C@H](CCC(N)=O)NC(=O)[C@H](CC(=O)O)NC(=O)[C@H](CCC(=O)O)NC(=O)[C@H](Cc2ccccc2)NC(=O)[C@H](CC(N)=O)NC(=O)[C@H](Cc2ccccc2)NC(=O)CSC[C@@H](C(=O)NCC(N)=O)NC(=O)[C@@H]2CCCN2C(=O)[C@H](CCC(N)=O)NC(=O)[C@H](Cc2c[nH]c3ccccc23)NC1=O

Kd [7]: 1.8 nM
Molecule: {CH2CO}-FN[Phe(4-F)]EDQSPDTWQPCG-NH2 (thioether N-14) [Compound 40a]

Kd [8]: 2.8 nM | Human Granzyme B IC50 (fluorogenic substrate enzyme inhibition assay) [6]: < 8 nM
B2: Compound 25a (peptide)
peptide: {CH2CO}-FNFEDQSPDTWQPCG-NH2
modifications: thioether N-14
SMILES: C[C@@H](O)[C@@H]1NC(=O)[C@H](CC(=O)O)NC(=O)[C@@H]2CCCN2C(=O)[C@H](CO)NC(=O)[C@H](CCC(N)=O)NC(=O)[C@H](CC(=O)O)NC(=O)[C@H](CCC(=O)O)NC(=O)[C@H](Cc2ccccc2)NC(=O)[C@H](CC(N)=O)NC(=O)[C@H](Cc2ccccc2)NC(=O)CSC[C@@H](C(=O)NCC(N)=O)NC(=O)[C@@H]2CCCN2C(=O)[C@H](CCC(N)=O)NC(=O)[C@H](Cc2c[nH]c3ccccc23)NC1=O

Source: patent publication US20260207798A1, “CYCLIC PEPTIDES AS PET IMAGING AGENTS OF GRANZYME B” (priority 2022, published 2026)
